B1: CPEB3 Ribozyme (parent)
chain: GGGGGCCACAGCAGAAGCGUUCACGUCGCGGCCCCUGUCAGAUUCUGGUGAAUCUGCGAAUUCUGCUGU

Variants of: B1
Experiment: self-cleavage, relative activity (ratio to wild type); higher = more cleavage; co-transcriptional

| Variant | self-cleavage |
| --- | --- |
| GGGGGCCACAGCAGGAGCGUUCACGUCGCGGCCCCUGUCAGAUUCUGGUGAAUCUGCGAAUUCUGCAGU [A15G U67A] | 0.971 |
| GGGGGCCACAGCAGGAGCGUUCACGUCGCGGCCCCUGUCAGAUUCUGGUGAAUCUGCGAAUUCUGCGGU [A15G U67G] | 0.996 |
| GGGGGCCACAGCAGGAGCGUUCACGUCGCGGCCCCUGUCAGAUUCCGGUGAAUCUGCGAAUUCUGCUGU [A15G U46C] | 0.974 |
| GGGGGCCACAGCAGUAGCGUUCACGUCGCGGCCCCUGUCCGAUUCUGGUGAAUCUGCGAAUUCUGCUGU [A15U A40C] | 0.287 |
| GGGGGCCACAGCAGUAGCGUUCACGUCGCGGCCCCUGUCGGAUUCUGGUGAAUCUGCGAAUUCUGCUGU [A15U A40G] | 0.697 |
| GGGGGCCACAGCAGUAGCGUUCAUGUCGCGGCCCCUGUCAGAUUCUGGUGAAUCUGCGAAUUCUGCUGU [A15U C24U] | 0.28 |
| GGGGGCCACAGCAGUAGCGUUCAGGUCGCGGCCCCUGUCAGAUUCUGGUGAAUCUGCGAAUUCUGCUGU [A15U C24G] | 0.214 |
| GGGGGCCACAGCAGGAGCGUUCACGUCGCGGCCCCUGUCAGACUCUGGUGAAUCUGCGAAUUCUGCUGU [A15G U43C] | 1.01 |
| GGGGGCCACAGCAGUAGCGUUCACGUCGCGGCCCCUGUCAGAUUGUGGUGAAUCUGCGAAUUCUGCUGU [A15U C45G] | 0.823 |
| GGGGGCCACAGCAGGAGCGUUCACGUCGCGGCCCCUGUCAGAUUCUGGUGAAUCGGCGAAUUCUGCUGU [A15G U55G] | 0.85 |
| GGGGGCCACAGCAGGAGCGUUCACGUCGCGGCCCCUGUCAGAUUCUGGUGAAUCCGCGAAUUCUGCUGU [A15G U55C] | 0.869 |
| GGGGGCCACAGCAGGAGCGUUCACGUCGCGGCCCCUGUCAGAUUCUGGUGAAUCAGCGAAUUCUGCUGU [A15G U55A] | 0.892 |
| GGGGGCCACAGCAGUAGCGUUCACGUCGCGGCCCCUGUCAGAUUCUGGUGAAUCUGCGAAUUAUGCUGU [A15U C63A] | 0.832 |
| GGGGGCCACAGCAGUAGCGUUCACGUCGCGGCCCCUGUCAGAUUCUGGUGAAUCUGCGAAUUUUGCUGU [A15U C63U] | 0.794 |
| GGGGGCCACAGCAGUAGCGUUCACGUCGCGGCCCCUGUCAGAUUCUGGUGACUCUGCGAAUUCUGCUGU [A15U A52C] | 0.889 |
| GGGGGCCACAGCAGUAGCGUUCACGUCGCGGCCCCUGUCAGAUUCUGGUGAUUCUGCGAAUUCUGCUGU [A15U A52U] | 0.804 |
| GGGGGCCACAGCAGUAGCGUUCACGUCGCGGCCCCUGUCAGAUUCUGGUGAAUCUGGGAAUUCUGCUGU [A15U C57G] | 0.259 |
| GGGGGCCACAGCAGUAGCGUUCACGUCGCGGCCCCUGUCAGAUUCUGGUGAAUCUGAGAAUUCUGCUGU [A15U C57A] | 0.298 |
| GGGGGCCACAGCAGUAGCGUUCACGUCGCGGCCCCUGUCAGAUUCUGGUGAAUAUGCGAAUUCUGCUGU [A15U C54A] | 0.468 |
| GGGGGCCACAGCAGUAGCGUUCACGUCGCGGCCCCUGUCAGAUUCUGGUGAAUUUGCGAAUUCUGCUGU [A15U C54U] | 0.845 |

| Variant | self-cleavage |
| --- | --- |
| GGGGGCCACAGCAGUAGCGUUCACGUCGCGGCCCCUGUCAGAUUCUGGUGAAUGUGCGAAUUCUGCUGU [A15U C54G] | 0.412 |
| GGGGGCCACAGCAGGAGCGUUCACGUCGCGGCCCCUGUCAGAUUCUGGUGAAUCUGCGAAUACUGCUGU [A15G U62A] | 0.906 |
| GGGGGCCACAGCAGGAGCGUUCACGUCGCGGCCCCUGUCAGAUUCUGGUGAAUCUGCGAAUCCUGCUGU [A15G U62C] | 0.956 |
| GGGGGCCACAGCAGUAGCGUUCACGUCGCGGCCCCUGUCAGAUUCUGGUGAAUCUGCGAAUUCUGCUGU [A15U] | 0.928 |
| GGGGGCCACAGCAGGAGCGUUCACGUCGCGGCCCCUGUCAGAUUCUGGUGAAUCUGCGAAUUCGGCUGU [A15G U64G] | 0.918 |
| GGGGGCCACAGCAGUAGCGUUCACGUCGCGGCCCCUGUCAGAUUCUGGUGAAUCUGCGAGUUCUGCUGU [A15U A60G] | 0.416 |
| GGGGGCCACAGCAGUAGCGUUCACGUCGCGGCCCCUGUCAGAUUCUGGUGAAUCUGCGACUUCUGCUGU [A15U A60C] | 0.298 |
| GGGGGCCACAGCAGUAGCGUUCACGUCGCGGCCCCUGUGAGAUUCUGGUGAAUCUGCGAAUUCUGCUGU [A15U C39G] | 0.622 |
| GGGGGCCACAGCAGUAGCGUUCACGUCGCGGCCCCUGUAAGAUUCUGGUGAAUCUGCGAAUUCUGCUGU [A15U C39A] | 0.309 |
| GGGGGCCACAGCAGUAGCGUUCACGUCGCGGCCGCUGUCAGAUUCUGGUGAAUCUGCGAAUUCUGCUGU [A15U C34G] | 0.372 |
| GGGGGCCACAGCAGUAGCGUUCACGUCGCGGCCUCUGUCAGAUUCUGGUGAAUCUGCGAAUUCUGCUGU [A15U C34U] | 0.891 |
| GGGGGCCACAGCAGUAGCGUUCACGUCGCGGCCACUGUCAGAUUCUGGUGAAUCUGCGAAUUCUGCUGU [A15U C34A] | 0.513 |
| GGGGGCCACAGCAGUUGCGUUCACGUCGCGGCCCCUGUCAGAUUCUGGUGAAUCUGCGAAUUCUGCUGU [A15U A16U] | 0.798 |
| GGGGGCCACAGCAGUCGCGUUCACGUCGCGGCCCCUGUCAGAUUCUGGUGAAUCUGCGAAUUCUGCUGU [A15U A16C] | 0.135 |
| GGGGGCCACAGCAGUAGCGUUCACGUCGCGGCCCCUGUCAGAUUCUGGUGAAUCUGCGUAUUCUGCUGU [A15U A59U] | 0.331 |
| GGGGGCCACAGCAGUAGCGUUCACGUCGCGGCCCCUGUCAGAUUCUGGUGAAUCUGCGGAUUCUGCUGU [A15U A59G] | 0.856 |
| GGGGGCCACAGCAGUAGCGUUCACGUCGCGGCCCCUGUCAGAUUCUGGUGAAUCUGCGCAUUCUGCUGU [A15U A59C] | 0.42 |
| GGGGGCCACAGCAGUAGCGUUCACGUCGCGGACCCUGUCAGAUUCUGGUGAAUCUGCGAAUUCUGCUGU [A15U C32A] | 0.285 |
| GGGGGCCACAGCAGUAGCGUUCACGUCGCGGGCCCUGUCAGAUUCUGGUGAAUCUGCGAAUUCUGCUGU [A15U C32G] | 0.247 |
